“And” between values parts separate entries of the source, which are not always exact repeats. Identical values can stand only once.
How the values were obtained:
[1] = Single dose pharmacokinetics of EXT607 in male rats; settings: in vivo, rat
Description: In a single dose pharmacokinetic study, EXT607 was formulated in PBS and groups of male rats (n=3) were dosed at a volume of 1 ml/kg as follows: Group 1, 100 μg/kg intravenous; Group 2, 30 μg/kg subcutaneous; Group 3, 100 μg/kg subcutaneous; Group 4, 300 μg/kg subcutaneous. Blood (0.25 mL) was collected via the jugular vein cannula, transferred into tubes containing K2EDTA, and kept on wet ice until processed for plasma. Blood samples were collected at 0 (predose), 0.083 (IV only), 0.25, 0.5, 1, 2, 4, 6, 8, 12, 24, 36, 48, 60 and 72 h postdose.
(§1) Pharmacokinetic parameters were determined from the plasma concentration versus time data (Table 4) by a non-compartmental analysis with uniform weighting using Phoenix® WinNonlin® Version 6.3 (Certara L.P. (Pharsight), St. Louis, MO). The concentration versus time data were analyzed using the IV bolus or extravascular administration models. Best fit Lambda z ranges were used.

[2] = Single dose pharmacokinetics of EXT607 in male cynomolgus monkeys; assay type: in vivo; settings: cynomolgus monkey
Description: In a single dose pharmacokinetic study, EXT607 was formulated in PBS and groups of male cynomolgus monkeys (n=3), weighing approximately 4 kg each, were dosed at a volume of 1 ml/kg as follows: Group 1, 20 μg/kg intravenous; Group 2, 7 μg/kg subcutaneous; Group 3, 20 μg/kg subcutaneous; Group 4, 70 μg/kg subcutaneous. Blood (1.0 mL) was collected via the jugular vein cannula, transferred into tubes containing K2EDTA, and kept on wet ice until processed for plasma. Blood samples were collected at 0 (pre-dose), 0.083 (IV only), 0.25, 0.5, 1, 2, 4, 6, 8, 12, 24, 36, 48, 60 and 72 h post-dose.
as §1, with “5)” for “4)”
At low doses, the rate of subcutaneous absorption is slower than at high doses, leading to a lower Cmax and an overall flatter PK profile.

[3] = system: Thyroparathyroidectomized (TPTx) rats; test: 28-day pharmacodynamic study in thyroparathyroidectomized (TPTx) rats; assay type: in vivo, rat; settings: for % Increase in Serum Calcium, Cumulative: Days 1, 12, 27, relative to TPTx/vehicle; for increase in serum calcium compared to TPTx controls (in words): daily SC dosing (EXT607 1, 3, 10 nmol/kg; PTH peptides 10 nmol/kg); for decrease in serum phosphate (in words): daily SC dosing (EXT607 all dose levels; PTH peptides 10 nmol/kg), from Day 12
Excerpt: 28-day Pharmacodynamic Study of EXT607 in TPTx Rats. Thyroparathyroidectomized (TPTx) rats are a model for hypoparathyroidism. To produce TPTx rats, the thyroid and parathyroid glands were surgically resected and the rats were given L-thyroxine to compensate for the loss of their thyroid. Due to the absence of PTH, TPTx rats had lower levels of serum calcium and higher levels of serum phosphate.
Each group consisted of 10 female rats split into two cohorts of 5 animals for blood sampling purposes. On days 1, 12, and 27, blood (˜0.2 ml) was collected into serum separation tubes at t=0 (pre-dose), 2, 6, 10, and 24 h. The samples were processed into serum by standard methods and analyzed for serum total calcium and phosphate.
Calcium levels at 3 and 10 nmol/kg (20 and 60 μg/kg) were at or just below the normal range of calcium levels for healthy animals. […] For each timepoint, the percent increase in serum calcium relative to the TPTx vehicle control group (Group 2) was determined and daily averages were calculated (Table 9B). Over the three days sampled (Days 1, 12, and 27), […] increased serum calcium an average of 17, 28, and 37% at 1, 3, and 10 nmol/kg, respectively.
At each timepoint, the percent decrease in serum phosphate relative to the TPTx vehicle control group (Group 2) was determined, and daily averages were calculated (Table 9C).

[4] = 7 μg/kg SC relative to 70 μg/kg SC
[5] = 20 μg/kg SC relative to 70 μg/kg SC
[6] = in vivo, 7 ug/kg, single 7 μg/kg SC
[7] = in vivo, 20 ug/kg, single 20 μg/kg IV
[8] = in vivo, 20 ug/kg, single 20 μg/kg SC
[9] = in vivo, 70 ug/kg, single 70 μg/kg SC
[10] = 10 nmol/kg SC daily, Day 1, relative to TPTx/vehicle
[11] = 10 nmol/kg SC daily, Day 12, relative to TPTx/vehicle
[12] = 10 nmol/kg SC daily, Day 27, relative to TPTx/vehicle

C=C1CC[C@H](OCCCNC(=O)CCOCCOCCOCCOCCOCCOCCOCCOCCOCCOCCOCCOCCOCCOCCOCCOCCOCCOCCOCCOCCOCCOCCOCCOCCOCCOCCOCCOCCOCCOCCOCCOCCOCCOCCOCCOCCNC(=O)CCN2C(=O)CC(SC[C@H](NC(=O)[C@H](Cc3ccccc3)NC(=O)[C@H](CC(N)=O)NC(=O)[C@H](Cc3c[nH]cn3)NC(=O)[C@@H](NC(=O)[C@H](CC(=O)O)NC(=O)[C@H](CCC(N)=O)NC(=O)[C@H](CC(C)C)NC(=O)[C@H](CCCCN)NC(=O)[C@H](CCCCN)NC(=O)[C@H](CCCNC(=N)N)NC(=O)[C@H](CC(C)C)NC(=O)[C@H](Cc3c[nH]c4ccccc34)NC(=O)[C@H](CCC(=O)O)NC(=O)[C@@H](NC(=O)[C@H](CCCNC(=N)N)NC(=O)[C@H](CCC(=O)O)NC(=O)[C@H](CCSC)NC(=O)[C@H](CO)NC(=O)[C@H](CC(N)=O)NC(=O)[C@H](CC(C)C)NC(=O)[C@H](Cc3c[nH]cn3)NC(=O)[C@H](CCCCN)NC(=O)CNC(=O)[C@H](CC(C)C)NC(=O)[C@H](CC(N)=O)NC(=O)[C@H](Cc3c[nH]cn3)NC(=O)[C@H](CCSC)NC(=O)[C@H](CC(C)C)NC(=O)[C@H](CCC(N)=O)NC(=O)[C@@H](NC(=O)[C@H](CCC(=O)O)NC(=O)[C@H](CO)NC(=O)[C@@H](NC(=O)[C@@H](N)CO)C(C)C)[C@@H](C)CC)C(C)C)C(C)C)C(=O)O)C2=O)C/C1=C/C=C1\CCC[C@]2(C)[C@@H]([C@H](C)CCCC(C)(C)O)CC[C@@H]12 (some centres unmarked) [EXT607]
AUC(0-inf) ([1]; 30 ug/kg, single 30 μg/kg SC): 0.186 µg·h/mL
MRT ([1]; 30 ug/kg, single 30 μg/kg SC): 15.9 h
bioavailability ([1]; 30 ug/kg, single 30 μg/kg SC, read-out: Bioavailability): 12.9%
AUC(0-inf) ([1]; 100 ug/kg, single 100 μg/kg IV): 4.39 µg·h/mL
C0 ([1]; 100 ug/kg, single 100 μg/kg IV): 2.86 µg/mL
MRT ([1]; 100 ug/kg, single 100 μg/kg IV): 3.49 h
Vd ([1]; 100 ug/kg, single 100 μg/kg IV, read-out: VZ): 0.304 L/kg
AUC(0-inf) ([1]; 100 ug/kg, single 100 μg/kg SC): 0.472 µg·h/mL
MRT ([1]; 100 ug/kg, single 100 μg/kg SC): 13.7 h
bioavailability ([1]; 100 ug/kg, single 100 μg/kg SC, read-out: Bioavailability): 10.7%
half-life ([1]; 300 ug/kg, SC 30, 100 or 300 μg/kg, read-out: half-life): 7 to 15 h
AUC(0-inf) ([1]; 300 ug/kg, single 300 μg/kg SC): 1.29 µg·h/mL
MRT ([1]; 300 ug/kg, single 300 μg/kg SC): 13.6 h
bioavailability ([1]; 300 ug/kg, single 300 μg/kg SC, read-out: Bioavailability): 9.67%
half-life ([1]; sc, rats, after subcutaneous dosing, read-out: terminal half-life): 8 to 15 h
bioavailability ([1]; male rats, based on AUC vs intravenous injection, across SC doses, read-out: subcutaneous bioavailability (% F)): 10 to 13%
dose-adjusted AUC ratio [2, 4]: 0.95
dose-adjusted Cmax ratio [2, 4]: 0.28
dose-adjusted AUC ratio [2, 5]: 0.85
dose-adjusted Cmax ratio [2, 5]: 0.55
dose-adjusted AUC ratio ([2]; 70 μg/kg SC (reference)): 1.00
dose-adjusted Cmax ratio ([2]; 70 μg/kg SC (reference)): 1.00
half-life ([2]; in vivo, sc, NHP, after subcutaneous dosing, read-out: terminal half-life): 24 to 32 h
AUC(0-inf) [2, 6]: 0.483 µg·h/mL
MRT [2, 6]: 29.5 h
half-life ([2]; in vivo, 7 ug/kg, single 7 μg/kg SC, read-out: t1/2 (converted)): 24 h
AUC(0-inf) [2, 7]: 2.85 µg·h/mL
C0 [2, 7]: 0.782 µg/mL
MRT [2, 7]: 11.2 h
Vd ([2]; in vivo, 20 ug/kg, single 20 μg/kg IV, read-out: VZ): 0.34 L/kg
half-life ([2]; in vivo, 20 ug/kg, single 20 μg/kg IV, read-out: t1/2 (converted)): 32.3 h
AUC(0-inf) [2, 8]: 1.29 µg·h/mL
AUC(0-t) [2, 8]: 1.16 µg·h/mL
MRT [2, 8]: 23.3 h
half-life ([2]; in vivo, 20 ug/kg, single 20 μg/kg SC, read-out: t1/2 (converted)): 24.3 h
AUC(0-inf) [2, 9]: 5.3 µg·h/mL
MRT [2, 9]: 17.5 h
half-life ([2]; in vivo, 70 ug/kg, single 70 μg/kg SC, read-out: t1/2 (converted)): 27.7 h
bioavailability ([2]; in vivo, across SC doses, read-out: bioavailability when delivered subcutaneously): 45 to 54%
half-life ([2]; in vivo, across doses, read-out: t1/2 of elimination): 24 to 32 h

CC[C@H](C)[C@H](NC(=O)[C@H](CCC(=O)O)NC(=O)[C@H](CO)NC(=O)[C@@H](NC(=O)[C@@H](N)CO)C(C)C)C(=O)N[C@@H](CCC(N)=O)C(=O)N[C@@H](CC(C)C)C(=O)N[C@@H](CCSC)C(=O)N[C@@H](Cc1c[nH]cn1)C(=O)N[C@@H](CC(N)=O)C(=O)N[C@@H](CC(C)C)C(=O)NCC(=O)N[C@@H](CCCCN)C(=O)N[C@@H](Cc1c[nH]cn1)C(=O)N[C@@H](CC(C)C)C(=O)N[C@@H](CC(N)=O)C(=O)N[C@@H](CO)C(=O)N[C@@H](CCSC)C(=O)N[C@@H](CCC(=O)O)C(=O)N[C@@H](CCCNC(=N)N)C(=O)N[C@H](C(=O)N[C@@H](CCC(=O)O)C(=O)N[C@@H](Cc1c[nH]c2ccccc12)C(=O)N[C@@H](CC(C)C)C(=O)N[C@@H](CCCNC(=N)N)C(=O)N[C@@H](CCCCN)C(=O)N[C@@H](CCCCN)C(=O)N[C@@H](CC(C)C)C(=O)N[C@@H](CCC(N)=O)C(=O)N[C@@H](CC(=O)O)C(=O)N[C@H](C(=O)N[C@@H](Cc1c[nH]cn1)C(=O)N[C@@H](CC(N)=O)C(=O)N[C@@H](Cc1ccccc1)C(=O)O)C(C)C)C(C)C [PTH(1-34), reference compound]
% Decrease in Serum Phosphate, Daily Average [3, 10]: −1.7%
% Increase in Serum Calcium, Daily Average [3, 10]: 8.0%
% Decrease in Serum Phosphate, Daily Average [3, 11]: 9.1%
% Increase in Serum Calcium, Daily Average [3, 11]: 12%
% Decrease in Serum Phosphate, Daily Average [3, 12]: 13%
% Increase in Serum Calcium, Daily Average [3, 12]: 6.4%
% Increase in Serum Calcium, Cumulative ([3]; 10 nmol/kg SC daily): 9% and 8.7%
increase in serum calcium compared to TPTx controls (in words) [3]: minimal and did not reach statistical significance
decrease in serum phosphate (in words) [3]: Occasional decreases

B1: PTH(1-84): wild-type full-length parathyroid hormone, 84 amino acids, SEQ ID NO: 2 (protein, UniProt P01270 32-115, looked up)
Parathyroid hormone: SVSEIQLMHNLGKHLNSMERVEWLRKKLQDVHNFVALGAPLAPRDAGSQRPRKKEDNVLVESHEKSLGEADKADVNVLTKAKSQ
modifications: Parathyroid hormone
% Decrease in Serum Phosphate, Daily Average [3, 10]: 0.2%
% Increase in Serum Calcium, Daily Average [3, 10]: 7.0%
% Decrease in Serum Phosphate, Daily Average [3, 11]: 17%
% Increase in Serum Calcium, Daily Average [3, 11]: 14%
% Decrease in Serum Phosphate, Daily Average [3, 12]: 17%
% Increase in Serum Calcium, Daily Average [3, 12]: 4.1%
% Increase in Serum Calcium, Cumulative ([3]; 10 nmol/kg SC daily): 9% and 8.5%
% Decrease in Serum Phosphate, Combined ([3]; 10 nmol/kg SC daily, Days 12, 27, relative to TPTx/vehicle): 17%
increase in serum calcium compared to TPTx controls (in words) [3]: minimal and did not reach statistical significance with the exception of two isolated timepoints
decrease in serum phosphate (in words) [3]: Slight decreases
